System: peptide library, one residue held at a place counted from the Y acceptor
Test: relative phosphorylation of the sub-library (ratio to the mean residue at this position); higher = residue favoured
Method in brief: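 Every value reflects phosphorylation relative to the mean randomized residue. The sum of the 18 randomized residues, or 16 in the Ser/Thr-free library, served to normalize intensities at each position, which were then multiplied by that number. Intensities came from phosphorimaging with ImageQuant of biotinylated Tyr-centred peptides captured on streptavidin membranes after 90 min with purified recombinant kinases and 50 μM ATP plus γ-32P-ATP.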

SRC, construct: Full length, human (from UniProt P12931)
relative phosphorylation
Settings	at +1	at +2	at +3	at +4	at +5	at -1	at -2	at -3	at -4	at -5
A fixed	1.71	1.04	0.531	0.882	1.03	0.537	1.09	0.87	1.12	1.01
D fixed	0.651	0.589	0.472	0.783	0.787	0.691	1.57	1.93	1.48	1.36
E fixed	1.43	1.36	0.454	0.876	0.704	0.984	1.82	2.66	1.68	1.23
F fixed	0.696	1.21	3.63	1.19	1.24	0.688	0.649	0.959	1.2	1.03
G fixed	3.59	0.728	0.679	1.29	1.06	0.492	1.2	0.937	1.15	1.16
H fixed	0.667	0.556	0.874	0.983	0.891	0.504	0.917	0.842	0.875	0.871
I fixed	0.83	1.39	2.12	0.89	0.817	4.34	0.76	0.663	0.902	0.826
K fixed	0.229	0.535	0.369	0.982	1.06	0.229	0.522	0.462	0.566	0.758
L fixed	0.605	0.987	1.36	0.876	1.05	1.6	0.878	0.694	0.954	0.899
M fixed	1.09	1.09	0.913	1.19	0.87	0.764	0.657	0.765	0.91	0.901
N fixed	0.456	0.648	0.407	0.737	0.725	0.294	1.17	1.18	0.793	1.09
P fixed	0.274	0.7	0.453	0.931	1.49	1.11	1.26	0.814	1.17	1.21
Q fixed	0.764	0.802	0.416	1.08	0.851	0.378	1.11	1.01	0.941	0.976
R fixed	0.297	0.685	0.637	1.14	1.24	0.213	0.598	0.541	0.673	0.808
S fixed	1.04	1.67	0.626	0.932	1.15	0.385	1.18	0.971	0.797	0.955
T fixed	0.976	1.5	0.709	0.94	0.926	1.28	0.896	0.901	0.692	0.848
V fixed	1.14	1.39	1.5	0.919	0.947	2.86	0.834	0.664	0.784	0.82
W fixed	1.55	1.13	1.84	1.39	1.16	0.651	0.886	1.14	1.31	1.27
pThr fixed	1.52	1.76	0.528	0.686	0.645	2.28	1.83	1.46	1.3	1.37
pTyr fixed	3.88	2.03	0.798	1.32	0.829	1.27	1.55	1.66	1.97	1.46

Source: the supplement of paper PMC11136658
